Source: US20190257837

Molecular target: T1, human recombinant nidogen-1 (intact, incubated without proteases), P14543
T1 chain: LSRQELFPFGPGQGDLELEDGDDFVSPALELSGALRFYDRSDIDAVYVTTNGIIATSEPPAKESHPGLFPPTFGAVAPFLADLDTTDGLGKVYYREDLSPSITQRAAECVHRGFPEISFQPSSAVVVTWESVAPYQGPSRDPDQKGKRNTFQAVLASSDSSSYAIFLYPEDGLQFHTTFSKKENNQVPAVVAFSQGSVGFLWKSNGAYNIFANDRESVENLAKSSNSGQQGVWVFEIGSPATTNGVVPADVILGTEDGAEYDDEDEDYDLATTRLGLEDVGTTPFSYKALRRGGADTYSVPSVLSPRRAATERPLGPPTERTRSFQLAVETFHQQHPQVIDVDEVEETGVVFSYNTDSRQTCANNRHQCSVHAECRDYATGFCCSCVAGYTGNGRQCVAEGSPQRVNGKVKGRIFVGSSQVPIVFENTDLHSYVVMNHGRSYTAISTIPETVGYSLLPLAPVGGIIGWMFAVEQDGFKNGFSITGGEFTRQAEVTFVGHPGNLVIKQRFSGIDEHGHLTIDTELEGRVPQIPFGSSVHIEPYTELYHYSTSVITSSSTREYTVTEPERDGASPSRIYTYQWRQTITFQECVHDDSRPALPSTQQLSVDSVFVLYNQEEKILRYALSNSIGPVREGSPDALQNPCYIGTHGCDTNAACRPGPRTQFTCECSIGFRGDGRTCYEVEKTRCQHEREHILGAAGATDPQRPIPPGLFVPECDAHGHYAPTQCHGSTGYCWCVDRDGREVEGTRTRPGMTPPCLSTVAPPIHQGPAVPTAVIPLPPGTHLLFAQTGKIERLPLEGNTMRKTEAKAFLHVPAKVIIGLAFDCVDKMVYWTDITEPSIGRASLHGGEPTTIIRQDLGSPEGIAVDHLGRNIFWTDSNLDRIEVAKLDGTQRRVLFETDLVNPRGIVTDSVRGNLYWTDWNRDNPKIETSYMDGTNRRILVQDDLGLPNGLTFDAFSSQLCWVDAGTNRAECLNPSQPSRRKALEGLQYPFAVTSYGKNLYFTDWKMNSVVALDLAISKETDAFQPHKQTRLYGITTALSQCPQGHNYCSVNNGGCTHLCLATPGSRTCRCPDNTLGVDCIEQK

B1: human recombinant cathepsin S (protein)
chain: LPDSVDWREKGCVTEVKYQGSCGACWAFSAVGALEAQLKLKTGKLVSLSAQNLVDCSTEKYGNKGCNGGFMTTAFQYIIDNKGIDSDASYPYKAMDQKCQYDSKYRAATCSKYTELPYGREDVLKEAVANKGPVSVGVDARHPSFFLYRSGVYYEPSCTQNVNHGVLVVGYGDLNGKEYWLVKNSWGHNFGEEGYIRMARNKGNHCGIASFPSYPEI
- NIC levels after incubating nidogen-1 with CatS (competitive NIC ELISA): Approximately 5-fold higher levels of NIC were detected after incubating nidogen-1 with CatS for 24 h
